Measured values published in patent publication US20180362628A1 (KYMAB, published 2018).
Like-named read-outs stand apart in the source and are kept apart here. No end group written: not given here. *: point of attachment. Biotin = O=C1N[C@H]2[C@H](CS[C@H]2CCCCC(=O)*)N1

Assays:
[1] = target: T1, Recombinant CSP (Wellcome Trust Sanger Institute, FIG. 22), CSP ectodomain with BirA biotinylation tag, … (Plasmodium falciparum strain 3D7, UniProt Q7K740 19-376, biotinylated at the BirA substrate peptide); assay: SPR, IgG1 captured, CSP as analyte, 40 C; apparent affinity (avidity)
T1 construct: extracellular domain; Expressed in HEK293, 45 kDa; order of the tags is that of the legend, not confirmed; also called biotinylated recombinant CSP

[2] = target: T2, biotinylated rCSP (biotin/rCSP, Example 3) (Plasmodium falciparum strain 3D7, UniProt P02893 19-389, biotinylated (sites not given)); assay: BLI (Octet), biotin-rCSP on streptavidin sensor, antibody in solution
T2 construct: also called biotin/Pf CSP
T2 chain: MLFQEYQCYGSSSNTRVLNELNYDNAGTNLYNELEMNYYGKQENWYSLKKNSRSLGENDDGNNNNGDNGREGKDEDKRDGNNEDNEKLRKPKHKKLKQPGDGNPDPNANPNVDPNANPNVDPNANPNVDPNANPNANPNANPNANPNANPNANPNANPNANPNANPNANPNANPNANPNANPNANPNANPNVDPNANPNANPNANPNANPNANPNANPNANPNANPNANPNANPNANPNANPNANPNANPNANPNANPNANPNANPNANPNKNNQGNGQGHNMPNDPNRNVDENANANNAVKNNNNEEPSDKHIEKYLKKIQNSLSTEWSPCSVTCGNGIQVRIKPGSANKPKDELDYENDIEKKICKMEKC

[3] = target: T2, biotinylated rCSP (biotin/rCSP, Example …); assay: as above
[4] = target: T3, Peptide #12 (Biotin-SGSGDGNPDPAANPNV); assay: BLI, biotin-peptide on streptavidin sensor, IgG1 in solution, 25 C
T3 construct: alanine scan variant; also called Peptide #12 44296
T3 peptide: Biotin-SGSGDGNPDPAANPNV

[5] = target: T4, Peptide #5 (Biotin-SGSGDGNPDPNANPNV), original sequence of the alanine scan; assay: as above
T4 construct: also called Peptide #5 44289
T4 peptide: Biotin-SGSGDGNPDPNANPNV

[6] = target: T5, Peptide #11 (Biotin-SGSGDGNPDANANPNV); assay: as above
T5 construct: alanine scan variant; also called Peptide #11 44295
T5 peptide: Biotin-SGSGDGNPDANANPNV

[7] = target: T6, Peptide #3 (Biotin-SGSGHKKLKQPGDGNPDPNANPN) (N-terminal biotin); assay: as above
T6 construct: also called Peptide #3 44288
T6 peptide: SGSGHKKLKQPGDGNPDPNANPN

[8] = target: T7, Peptide #15 (Biotin-SGSGDGNPDPNANANV); assay: as above
T7 construct: alanine scan variant; also called Peptide #15 44299
T7 peptide: Biotin-SGSGDGNPDPNANANV

[9] = target: T8, Peptide #16 (Biotin-SGSGDGNPDPNANPAV); assay: as above
T8 construct: alanine scan variant; also called Peptide #16 44300
T8 peptide: Biotin-SGSGDGNPDPNANPAV

[10] = target: T9, Peptide #4 (Biotin-SGSGNPDPNANP); assay: as above
T9 construct: also called Peptide #4 44285
T9 peptide: Biotin-SGSGNPDPNANP

[11] = target: T10, Peptide #17 (Biotin-SGSGDGNPDPNANPNA); assay: as above
T10 construct: alanine scan variant; also called Peptide #17 44301
T10 peptide: Biotin-SGSGDGNPDPNANPNA

[12] = target: T11, Peptide #1 (Biotin-SGSGKPKHKKLKQPGDGNPDPNANP) (N-terminal biotin); assay: as above
T11 construct: also called Peptide #1 44286
T11 peptide: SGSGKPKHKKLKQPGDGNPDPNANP

[13] = target: T12, Peptide #8 (Biotin-SGSGDGAPDPNANPNV); assay: as above
T12 construct: alanine scan variant; also called Peptide #8 44292
T12 peptide: Biotin-SGSGDGAPDPNANPNV

[14] = target: T13, Peptide #7 (Biotin-SGSGDANPDPNANPNV); assay: as above
T13 construct: alanine scan variant; also called Peptide #7 44291
T13 peptide: Biotin-SGSGDANPDPNANPNV

[15] = target: T14, Peptide #9 (Biotin-SGSGDGNADPNANPNV); assay: as above
T14 construct: alanine scan variant; also called Peptide #9 44293
T14 peptide: Biotin-SGSGDGNADPNANPNV

[16] = target: T15, Peptide #6 (Biotin-SGSGAGNPDPNANPNV); assay: as above
T15 construct: alanine scan variant; also called Peptide #6 44290
T15 peptide: Biotin-SGSGAGNPDPNANPNV

[17] = target: T16, Peptide #14 (Biotin-SGSGDGNPDPNAAPNV); assay: as above
T16 construct: alanine scan variant; also called Peptide #14 44298
T16 peptide: Biotin-SGSGDGNPDPNAAPNV

[18] = target: T17, Peptide #10 (Biotin-SGSGDGNPAPNANPNV); assay: as above
T17 construct: alanine scan variant; also called Peptide #10 44294
T17 peptide: Biotin-SGSGDGNPAPNANPNV

[19] = target: T3, Peptide #12 (Biotin-SGSGDGNPDPAANPNV); assay: as above
[20] = target: T4, Peptide #5 (Biotin-SGSGDGNPDPNANPNV), …; assay: as above
[21] = target: T5, Peptide #11 (Biotin-SGSGDGNPDANANPNV); assay: as above
[22] = target: T6, Peptide #3 …; assay: as above
[23] = target: T7, Peptide #15 (Biotin-SGSGDGNPDPNANANV); assay: as above
[24] = target: T8, Peptide #16 (Biotin-SGSGDGNPDPNANPAV); assay: as above
[25] = target: T9, Peptide #4 (Biotin-SGSGNPDPNANP); assay: as above
[26] = target: T10, Peptide #17 (Biotin-SGSGDGNPDPNANPNA); assay: as above
[27] = target: T11, Peptide #1 …; assay: as above
[28] = target: T12, Peptide #8 (Biotin-SGSGDGAPDPNANPNV); assay: as above
[29] = target: T13, Peptide #7 (Biotin-SGSGDANPDPNANPNV); assay: as above
[30] = target: T14, Peptide #9 (Biotin-SGSGDGNADPNANPNV); assay: as above
[31] = target: T15, Peptide #6 (Biotin-SGSGAGNPDPNANPNV); assay: as above
[32] = target: T16, Peptide #14 (Biotin-SGSGDGNPDPNAAPNV); assay: as above
[33] = target: T17, Peptide #10 (Biotin-SGSGDGNPAPNANPNV); assay: as above
[34] = target: T18, full CSP protein (analyte of Example 12) (Plasmodium falciparum (isolate 3D7), UniProt Q7K740 19-374); assay: SPR, IgG1 from supernatant on anti-human IgG surface, CSP as analyte, 25 C, 1:1 fit
T18 construct: not shown: C-terminal tags

B1: Antibody 667, human IgG1 (antibody, V domains shown)
VH: QVQLVQSGAEVKKPGASVKVSCRASGYTFTNYAMHWVRQAPGQRLEWMGWINAGNGYTKYSQKFQDRVTITRDTSATTAYMELSSLRSEDTAMYYCARDSFYDILSGPVYHYYGMDVWGQGTTVTVSS
VL: QSALTQPDSVSGSPGQSITISCTGTSNDVGIYNHVSWYQQHPGKAPKLMIYDVNKRPSGISNRFSGSKSGDTASLTISGLQAEDEADYYCCSYAGSSAWVFGGGTKLTVL
notes: human IgG1 with human lambda light chain constant region; also called AB-000667; Ab667
- Kd [1]: 0.31 nM
- koff [1]: 6.46e-05 s⁻¹
- kon [1]: 215000 M⁻¹ s⁻¹
- Kd [2]: 0.341 nM
- koff [2]: 5.67e-05 s⁻¹
- kon [2]: 166000 M⁻¹ s⁻¹
- Kd [3]: 0.34 nM
- Response (nm) [4]: 0.0529 nm
- Response (nm) [5]: 0.635 nm
- Response (nm) [6]: 0.0953 nm
- Response (nm) [7]: 0.814 nm
- Response (nm) [8]: 0.213 nm
- Response (nm) [9]: 0.651 nm
- Response (nm) [10]: 0.163 nm
- Response (nm) [11]: 1.09 nm
- Response (nm) [12]: 0.645 nm
- Response (nm) [13]: 0.692 nm
- Response (nm) [14]: 0.951 nm
- Response (nm) [15]: 0.696 nm
- Response (nm) [16]: 0.907 nm
- Response (nm) [17]: -0.0141 nm
- Response (nm) [18]: 3.22 nm

B2: Antibody 666, human IgG1 (antibody, V domains shown)
VH: QVQLVQSGAEVKKPGASVKVSCKASGYTFTNYAMHWVRQAPGQRLEWMGWINAGNGNTKYSQNFQGRVTITRDTSASTAYMELSSLRSEDTAVYYCARDEYYASGSYYDYYYYGMDVWGQGTTVTVTS
VL: QSALTQPASVSGSPGQSITISCTGTSSDVGVYNYVSWFQQHPGKAPKLMIYNVSKRPSGVSNRFSGSKSGNTASLTISGLQAEDEADYYCCSYAGSSTWVFGGGTNLTVL
notes: human IgG1; also called Ab666
- Kd [1]: 0.18 nM
- koff [1]: 1.7e-05 s⁻¹
- kon [1]: 97000 M⁻¹ s⁻¹
- Response (nm) [19]: 0.0943 nm
- Response (nm) [20]: 2.4 nm
- Response (nm) [21]: 0.982 nm
- Response (nm) [22]: 6.53 nm
- Response (nm) [23]: 0.862 nm
- Response (nm) [24]: 2.7 nm
- Response (nm) [25]: 7.06 nm
- Response (nm) [26]: 2.95 nm
- Response (nm) [27]: 9.06 nm
- Response (nm) [28]: 2.23 nm
- Response (nm) [29]: 2.99 nm
- Response (nm) [30]: 1.75 nm
- Response (nm) [31]: 3.14 nm
- Response (nm) [32]: 0.0116 nm
- binding result [32]: no binding (tested: LOD 0.020 nm)
- Response (nm) [33]: 5.18 nm
- kon [34]: 1e+08 M⁻¹ s⁻¹
